This note sets out measurements from paper PMC5795786 (Genes & Development, 2017).

B1: His6-Sld3 (natural protein, S. cerevisiae (budding yeast), UniProt P53135 1-668, looked up)
chain: METWEVIASVKEATKGLDLSLDHPLIIKSEDVPSNILQLLQQKNRRQLKHICMKSRKEYFLLEEYGPGFWVKWPYNYFNGYSLPERRTEVVTTVERERAKRETLKTWDELKFKELLHLWSEEPKGSCKLEKDKDLKLDMNPPDMKGESKINDYYSDPKEYIESKYYDALFSIHTPLAYFVKSNLVRLKNTCRTKYGSDSYKIAYQAMLQKFLLSIVQFKDRHDNRLLLEPFSSPIADEKRKNCLTKFVIQDENKNSSTIADLCVVLKSREIKLQILLLLEIIGLNDLDWNFRDFEKKYKLKLKKRSLNLTKKGLVRRRSKKKTSEKDKGIERITTSLDYCEQLDLYLDRACILDILLSSETPNPDAIEASNGTIQEHKKNILDKSKEASLVGFINYVLIPYFNKKVPHAVEFIIQKLKGPSMRPKRALKKVNDSTNVSSPNTVETYNRLSTSQRASRSSIINSVPSSPALRRVDANLFSRKSIASPTPELLNSRTNSNLNEFLESETRSLKRPSQLGRTKSDLTMNHLQKRQFSVSDLSTTRVPNSSTITLKTPFSHSTINAYKTMNNSFRRVGKRKDINETIRLHERVDSEENVQVQATPAVKKRTVTPNKKAQLQSIIESPLNFKDDDTHEGRKNTSNITSTPTNKPPENSSKRRVRRRLFAPEST
B2: GST-Dbf4 (1-390) (domain or fragment, S. cerevisiae (budding yeast), UniProt P32325 1-390, looked up)
chain: MVSPTKMIIRSPLKETDTNLKHNNGIAASTTAAGHLNVFSNDNNCNNNNTTESFPKKRSLERLELQQQQHLHEKKRARIERARSIEGAVQVSKGTGLKNVEPRVTPKELLEWQTNWKKIMKRDSRIYFDITDDVEMNTYNKSKMDKRRDLLKRGFLTLGAQITQFFDTTVTIVITRRSVENIYLLKDTDILSRAKKNYMKVWSYEKAARFLKNLDVDLDHLSKTKSASLAAPTLSNLLHNEKLYGPTDRDPRTKRDDIHYFKYPHVYLYDLWQTWAPIITLEWKPQELTNLDELPYPILKIGSFGRCPFIGDRNYDESSYKRVVKRYSRDKANKKYALQLRALFQYHADTLLNTSSVNDQTKNLIFIPHTCNDSTKSFKKWMQEKAKNFE
B3: GST-Fkh1 (natural protein, S. cerevisiae (budding yeast), UniProt P40466 1-484, looked up)
chain: MSVTSREQKFSGKYSSYTAQDRQGLVNAVTCVLSSSSDPVAVSSDYSNSLSIAREVNAYAKIAGCDWTYYVQKLEVTIGRNTDSLNLNAVPGTVVKKNIDIDLGPAKIVSRKHAAIRFNLESGSWELQIFGRNGAKVNFRRIPTGPDSPPTVLQSGCIIDIGGVQMIFILPEQETIISDYCLNHLMPKLLSTYGTNGNNNPLLRNIIEGSTYLREQRLQEEARLQQLDHLHTPLSSSSDVNPIGDPHGDTIMMEEDEEDENYTRGGIRPNTYTSSSNNAVTNGNVPHIENPSDLSLDENRYIKPPQSYASMITQAILSTPEGSISLADIYKFISDNYAFYRFSQMAWQNSVRHNLSLNKAFEKVPKRAGQQGKGMNWKISDEVRRDFLNKWNAGKLSKIRRGASVTRQLQLHMSKFGEIPAPESSSIDPRGIKAQKVKKSLQATSSILGESAPQLQRTQLTGQISTTTSMDVTTNANVNNSSLS
B4: Purified recombinant Fkh1 (in vitro recruitment assay) (natural protein, S. cerevisiae (budding yeast), UniProt P40466 1-484, looked up)
chain: B3 chain
B5: 6His-Dbf4 (656-704) (domain or fragment, S. cerevisiae (budding yeast), UniProt P32325 656-704, looked up)
chain: KNSGYCENCRVKYESLEQHIVSEKHLSFAENDLNFEAIDSLIENLRFQI

In one assay the target is T1, GST-Dbf4 (S. cerevisiae (budding yeast), UniProt P32325 1-704).
T1 sequence (looked up): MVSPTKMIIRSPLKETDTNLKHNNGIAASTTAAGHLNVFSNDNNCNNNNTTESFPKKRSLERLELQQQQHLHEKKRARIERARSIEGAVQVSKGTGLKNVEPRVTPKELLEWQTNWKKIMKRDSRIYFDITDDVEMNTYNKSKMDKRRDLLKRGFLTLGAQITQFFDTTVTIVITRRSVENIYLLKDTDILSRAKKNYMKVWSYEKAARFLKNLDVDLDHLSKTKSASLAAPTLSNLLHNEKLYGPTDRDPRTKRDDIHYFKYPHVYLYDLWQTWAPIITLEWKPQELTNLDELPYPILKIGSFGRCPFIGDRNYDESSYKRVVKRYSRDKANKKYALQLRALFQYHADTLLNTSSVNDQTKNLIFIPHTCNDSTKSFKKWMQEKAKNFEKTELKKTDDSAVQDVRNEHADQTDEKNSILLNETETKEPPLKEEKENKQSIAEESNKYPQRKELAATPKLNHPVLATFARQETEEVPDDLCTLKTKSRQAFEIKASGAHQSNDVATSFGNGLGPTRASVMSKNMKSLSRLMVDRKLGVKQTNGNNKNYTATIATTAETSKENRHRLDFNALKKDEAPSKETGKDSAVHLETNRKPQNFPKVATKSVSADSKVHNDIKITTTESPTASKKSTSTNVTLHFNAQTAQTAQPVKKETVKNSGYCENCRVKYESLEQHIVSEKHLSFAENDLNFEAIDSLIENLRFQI
The experiment in a line: pull-down.

The assay “His6-Sld3” deals with B1. The experiment in a line: pull-down.
Assay [1] deals with T2, Phosphatase-treated Dbf4 purified from yeast cells (S. cerevisiae (endogenous in yeast), UniProt P32325 1-704, treated with λ-phosphatase).
T2 sequence (looked up): T1 sequence (looked up)
As to the kind of experiment: pull-down.

Assay [2] deals with T3, Purified recombinant Dbf4 (6His-Dbf4p, pET28a-Dbf4) (S. cerevisiae (budding yeast), UniProt P32325 1-704).
T3 sequence (looked up): T1 sequence (looked up)
The experiment in a line: in vitro origin recruitment assay on DNA beads.

The target of the assay “GST-Fkh1” is B3. As to the kind of experiment: pull-down.

B1: the binding result with GST-Dbf4 was “binds”.
For the molecule B2, the binding result with His6-Sld3 is given as “binds”.
As for B3, in assay [1], the binding result is “binds”.
On to B4, for which the binding result in assay [2] is on record as “binds”.
Take B5: the binding result with GST-Fkh1 is “binds”.
